Results as given in IntAct's records for PubMed 31515488.

B1: Cyclic AMP-responsive element-binding protein 3-like protein 1 (Homo sapiens), Q96BA8 (parent)
chain: MDAVLEPFPADRLFPGSSFLDLGDLNESDFLNNAHFPEHLDHFTENMEDFSNDLFSSFFDDPVLDEKSPLLDMELDSPTPGIQAEHSYSLSGDSAPQSPLVPIKMEDTTQDAEHGAWALGHKLCSIMVKQEQSPELPVDPLAAPSAMAAAAAMATTPLLGLSPLSRLPIPHQAPGEMTQLPVIKAEPLEVNQFLKVTPEDLVQMPPTPPSSHGSDSDGSQSPRSLPPSSPVRPMARSSTAISTSPLLTAPHKLQGTSGPLLLTEEEKRTLIAEGYPIPTKLPLTKAEEKALKRVRRKIKNKISAQESRRKKKEYVECLEKKVETFTSENNELWKKVETLENANRTLLQQLQKLQTLVTNKISRPYKMAATQTGTCLMVAALCFVLVLGSLVPCLPEFSSGSQTVKEDPLAADGVYTASQMPSRSLLFYDDGAGLWEDGRSTLLPMEPPDGWEINPGGPAEQRPRDHLQHDHLDSTHETTKYLSEAWPKDGGNGTSPDFSHSKEWFHDRDLGPNTTIKLS
B2: Grainyhead-like protein 2 homolog (Homo sapiens), Q6ISB3 (parent)
chain: MSQESDNNKRLVALVPMPSDPPFNTRRAYTSEDEAWKSYLENPLTAATKAMMSINGDEDSAAALGLLYDYYKVPRDKRLLSVSKASDSQEDQEKRNCLGTSEAQSNLSGGENRVQVLKTVPVNLSLNQDHLENSKREQYSISFPESSAIIPVSGITVVKAEDFTPVFMAPPVHYPRGDGEEQRVVIFEQTQYDVPSLATHSAYLKDDQRSTPDSTYSESFKDAATEKFRSASVGAEEYMYDQTSSGTFQYTLEATKSLRQKQGEGPMTYLNKGQFYAITLSETGDNKCFRHPISKVRSVVMVVFSEDKNRDEQLKYWKYWHSRQHTAKQRVLDIADYKESFNTIGNIEEIAYNAVSFTWDVNEEAKIFITVNCLSTDFSSQKGVKGLPLMIQIDTYSYNNRSNKPIHRAYCQIKVFCDKGAERKIRDEERKQNRKKGKGQASQTQCNSSSDGKLAAIPLQKKSDITYFKTMPDLHSQPVLFIPDVHFANLQRTGQVYYNTDDEREGGSVLVKRMFRPMEEEFGPVPSKQMKEEGTKRVLLYVRKETDDVFDALMLKSPTVKGLMEAISEKYGLPVEKIAKLYKKSKKGILVNMDDNIIEHYSNEDTFILNMESMVEGFKVTLMEI
partner: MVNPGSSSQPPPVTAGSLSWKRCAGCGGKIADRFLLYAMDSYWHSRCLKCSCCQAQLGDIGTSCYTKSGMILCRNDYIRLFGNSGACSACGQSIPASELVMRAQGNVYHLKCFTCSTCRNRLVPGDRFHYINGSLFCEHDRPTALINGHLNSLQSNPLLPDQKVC
B3: Forkhead box protein R2 (Homo sapiens), Q6PJQ5 (parent)
chain: MDLKLKDCEFWYSLHGQVPGLLDWDMRNELFLPCTTDQCSLAEQILAKYRVGVMKPPEMPQKRRPSPDGDGPPCEPNLWMWVDPNILCPLGSQEAPKPSGKEDLTNISPFPQPPQKDEGSNCSEDKVVESLPSSSSEQSPLQKQGIHSPSDFELTEEEAEEPDDNSLQSPEMKCYQSQKLWQINNQEKSWQRPPLNCSHLIALALRNNPHCGLSVQEIYNFTRQHFPFFWTAPDGWKSTIHYNLCFLDSFEKVPDSLKDEDNARPRSCLWKLTKEGHRRFWEETRVLAFAQRERIQECMSQPELLTSLFDL
partner: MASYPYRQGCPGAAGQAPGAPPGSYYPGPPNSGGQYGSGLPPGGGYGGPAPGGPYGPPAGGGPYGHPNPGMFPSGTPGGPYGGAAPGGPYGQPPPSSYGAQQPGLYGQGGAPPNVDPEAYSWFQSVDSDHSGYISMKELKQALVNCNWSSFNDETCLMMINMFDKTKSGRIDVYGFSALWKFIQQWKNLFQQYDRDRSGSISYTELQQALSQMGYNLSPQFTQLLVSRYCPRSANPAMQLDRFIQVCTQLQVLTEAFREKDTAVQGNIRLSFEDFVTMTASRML
B4: Tuftelin-interacting protein 11 (Homo sapiens), Q9UBB9 (parent)
chain: MSLSHLYRDGEGRIDDDDDERENFEITDWDLQNEFNPNRQRHWQTKEEATYGVWAERDSDDERPSFGGKRARDYSAPVNFISAGLKKGAAEEAELEDSDDEEKPVKQDDFPKDFGPRKLKTGGNFKPSQKGFAGGTKSFMDFGSWERHTKGIGQKLLQKMGYVPGRGLGKNAQGIINPIEAKQRKGKGAVGAYGSERTTQSMQDFPVVDSEEEAEEEFQKELSQWRKDPSGSKKKPKYSYKTVEELKAKGRISKKLTAPQKELSQVKVIDMTGREQKVYYSYSQISHKHNVPDDGLPLQSQQLPQSGKEAKAPGFALPELEHNLQLLIDLTEQEIIQNDRQLQYERDMVVNLFHELEKMTEVLDHEERVISNLSKVLEMVEECERRMQPDCSNPLTLDECARIFETLQDKYYEEYRMSDRVDLAVAIVYPLMKEYFKEWDPLKDCTYGTEIISKWKSLLENDQLLSHGGQDLSADAFHRLIWEVWMPFVRNIVTQWQPRNCDPMVDFLDSWVHIIPVWILDNILDQLIFPKLQKEVENWNPLTDTVPIHSWIHPWLPLMQARLEPLYSPIRSKLSSALQKWHPSDSSAKLILQPWKDVFTPGSWEAFMVKNIVPKLGMCLGELVINPHQQHMDAFYWVIDWEGMISVSSLVGLLEKHFFPKWLQVLCSWLSNSPNYEEITKWYLGWKSMFSDQVLAHPSVKDKFNEALDIMNRAVSSNVGAYMQPGARENIAYLTHTERRKDFQYEAMQERREAENMAQRGIGVAASSVPMNFKDLIETKAEEHNIVFMPVIGKRHEGKQLYTFGRIVIYIDRGVVFVQGEKTWVPTSLQSLIDMAK
partner: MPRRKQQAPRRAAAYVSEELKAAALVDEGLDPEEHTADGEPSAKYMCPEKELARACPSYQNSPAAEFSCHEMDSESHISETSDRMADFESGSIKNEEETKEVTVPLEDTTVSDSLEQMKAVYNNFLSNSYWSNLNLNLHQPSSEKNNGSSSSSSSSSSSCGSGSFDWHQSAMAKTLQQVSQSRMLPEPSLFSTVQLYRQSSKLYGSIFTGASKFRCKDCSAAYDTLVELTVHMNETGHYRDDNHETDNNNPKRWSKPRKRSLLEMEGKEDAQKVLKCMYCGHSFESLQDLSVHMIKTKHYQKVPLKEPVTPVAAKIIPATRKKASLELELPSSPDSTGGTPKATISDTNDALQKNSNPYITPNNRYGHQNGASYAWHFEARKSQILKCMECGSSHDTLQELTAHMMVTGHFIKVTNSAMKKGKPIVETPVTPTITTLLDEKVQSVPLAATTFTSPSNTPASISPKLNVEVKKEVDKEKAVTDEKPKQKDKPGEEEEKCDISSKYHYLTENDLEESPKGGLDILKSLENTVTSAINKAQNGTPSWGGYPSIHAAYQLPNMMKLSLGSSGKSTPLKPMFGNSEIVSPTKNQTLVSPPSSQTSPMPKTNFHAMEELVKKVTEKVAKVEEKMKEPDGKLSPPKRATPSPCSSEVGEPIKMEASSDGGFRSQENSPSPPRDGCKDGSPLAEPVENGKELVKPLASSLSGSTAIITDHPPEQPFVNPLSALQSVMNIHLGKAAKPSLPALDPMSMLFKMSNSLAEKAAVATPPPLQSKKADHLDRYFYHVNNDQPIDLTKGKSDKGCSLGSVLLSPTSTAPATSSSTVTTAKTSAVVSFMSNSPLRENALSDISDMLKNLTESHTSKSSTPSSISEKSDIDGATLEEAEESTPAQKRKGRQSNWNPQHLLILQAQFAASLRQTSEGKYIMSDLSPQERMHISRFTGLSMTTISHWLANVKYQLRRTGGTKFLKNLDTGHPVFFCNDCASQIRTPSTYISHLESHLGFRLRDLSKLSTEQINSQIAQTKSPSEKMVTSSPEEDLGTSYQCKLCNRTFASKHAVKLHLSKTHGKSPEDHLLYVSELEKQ

Variants of: B1
Details: with gpr25_human GPR25, O00155
gpr25_human GPR25, O00155, sequence (O00155 whole entry): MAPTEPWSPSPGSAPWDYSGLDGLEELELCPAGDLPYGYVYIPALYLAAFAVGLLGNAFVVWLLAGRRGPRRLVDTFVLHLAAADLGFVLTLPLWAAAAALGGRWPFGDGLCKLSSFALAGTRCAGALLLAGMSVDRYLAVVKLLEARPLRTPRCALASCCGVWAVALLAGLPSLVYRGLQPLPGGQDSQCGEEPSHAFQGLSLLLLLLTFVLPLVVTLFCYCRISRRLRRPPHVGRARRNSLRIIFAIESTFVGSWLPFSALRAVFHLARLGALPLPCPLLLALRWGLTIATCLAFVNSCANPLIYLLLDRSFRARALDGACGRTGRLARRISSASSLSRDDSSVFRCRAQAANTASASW

Row | effect of a mutation on the interaction | Variant
1 | with no effect | MDAVLEPFPADRLFPGSSFLDLGDLNESDFLNNAHFPEHLDHFTENMEDFSNDLFSSFFDDPVLDEKSPLLDMELDSPTPGIQAEHSYSLSGDSAPQSPLVPIKMEDTTQDAEHGAWALGHKLCSIMVKQEQSPELPVDPLAAPSAMAAAATMATTPLLGLSPLSRLPIPHQAPGEMTQLPVIKAEPLEVNQFLKVTPEDLVQMPPTPPSSHGSDSDGSQSPRSLPPSSPVRPMARSSTAISTSPLLTAPHKLQGTSGPLLLTEEEKRTLIAEGYPIPTKLPLTKAEEKALKRVRRKIKNKISAQESRRKKKEYVECLEKKVETFTSENNELWKKVETLENANRTLLQQLQKLQTLVTNKISRPYKMAATQTGTCLMVAALCFVLVLGSLVPCLPEFSSGSQTVKEDPLAADGVYTASQMPSRSLLFYDDGAGLWEDGRSTLLPMEPPDGWEINPGGPAEQRPRDHLQHDHLDSTHETTKYLSEAWPKDGGNGTSPDFSHSKEWFHDRDLGPNTTIKLS [A152T]

Variants of: B1
Details: with tm147_human TMEM147, Q9BVK8
tm147_human TMEM147, Q9BVK8, sequence (Q9BVK8 whole entry): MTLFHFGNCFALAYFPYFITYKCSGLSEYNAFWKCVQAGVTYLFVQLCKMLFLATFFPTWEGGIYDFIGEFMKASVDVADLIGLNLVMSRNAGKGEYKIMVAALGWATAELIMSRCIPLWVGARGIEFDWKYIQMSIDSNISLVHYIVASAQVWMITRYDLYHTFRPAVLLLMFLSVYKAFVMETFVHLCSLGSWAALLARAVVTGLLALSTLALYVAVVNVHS

Row | effect of a mutation on the interaction | Variant
2 | with no effect | MDAVLEPFPADRLFPGSSFLDLGDLNESDFLNNAHFPEHLDHFTENMEDFSNDLFSSFFDDPVLDEKSPLLDMELDSPTPGIQAEHSYSLSGDSAPQSPLVPIKMEDTTQDAEHGAWALGHKLCSIMVKQEQSPELPVDPLAAPSAMAAAATMATTPLLGLSPLSRLPIPHQAPGEMTQLPVIKAEPLEVNQFLKVTPEDLVQMPPTPPSSHGSDSDGSQSPRSLPPSSPVRPMARSSTAISTSPLLTAPHKLQGTSGPLLLTEEEKRTLIAEGYPIPTKLPLTKAEEKALKRVRRKIKNKISAQESRRKKKEYVECLEKKVETFTSENNELWKKVETLENANRTLLQQLQKLQTLVTNKISRPYKMAATQTGTCLMVAALCFVLVLGSLVPCLPEFSSGSQTVKEDPLAADGVYTASQMPSRSLLFYDDGAGLWEDGRSTLLPMEPPDGWEINPGGPAEQRPRDHLQHDHLDSTHETTKYLSEAWPKDGGNGTSPDFSHSKEWFHDRDLGPNTTIKLS [A152T]

Variants of: B2
Details: with lmo4_human LMO4, P61968

Row | effect of a mutation on the interaction | Variant
3 | with no effect | K9R

Variants of: B3
Details: with pef1_human PEF1, Q9UBV8

Row | effect of a mutation on the interaction | Variant
4 | with no effect | MDLKLKDCEFWYSLHGQVPGLLDWDMRNELFLPCTTDQCSLAEQILAKYRVGVMKPPEMPQKRRPSPDGDGPPCEPNLWMWVDPNILCPLGSQEAPKPSGKEDLTNISPFPQPPQKDEGSNCSEDKVVESLPSSSSEQSPLQKQGIHSPSDFELTEEEAEEPDDNSLQSPEMKCYQSQKLWQINNQEKSWQRPPLNCSHLIALALRNNPHCGLSVQEIYNFTRQHFPFFWTAPDGWKSTIHYNLCFLDSFEKVPDSLKDEDNARPRSCLWKLTKEGHRRFWEETRALAFAQRERIQECMSQPELLTSLFDL [V286A]
5 | disrupting interaction strength | MDLKLKDCEFWYSLHGQVPGLLDWDMRNELFLPCTTDQCSLAEQILAKYRVGVMKPPEMPQKRRPSPDGDGPPCEPNLWMWVDPNILCPLGSQEAPKPSGKEDLTNISPFPQPPQKDEGSNCSEDKVVESLPSSSSEQSPLQKQGIHSPSDFELTEEEAEEPDDNSLQSPEMKCYQSQKLWQINNQEKSWQRPPLNCSHLIALALRNNPHCGLSVQEFYNFTRQHFPFFWTAPDGWKSTIHYNLCFLDSFEKVPDSLKDEDNARPRSCLWKLTKEGHRRFWEETRVLAFAQRERIQECMSQPELLTSLFDL [I218F]

Variants of: B4
Details: with tsh3_human TSHZ3, Q63HK5

Row | effect of a mutation on the interaction | Variant
6 | with no effect | R8Q
